Experimental data from US6291247A, “Methods of screening for factors that disrupt neurotrophin conformation and reduce neurotrophin biological activity” (priority 1996, dated 2001).
Bridges are numbered along the chain shown (N, C = ends).

Molecular target: T1, TrkA
T1 construct: Receptor cross-linking studies were performed on PC12 rat pheochromocytoma cells; endogenous in cells; host or cells: PC12 rat pheochromocytoma cells (ATCC CRL 1721)
Experiment: Affinity cross-linking of 125I-NGF to TrkA on PC12 cells
Format: binding, rat
Conditions: 200 μM; result in words
Procedure: The ability of the peptides under study to interfere with binding of NGF to NGF receptors was evaluated by analysis of inhibition of the chemical cross-linking of ^251 I-NGF to the common neurotrophin receptor p75 (Chao, J. Neurobiol. 25:1373-1385 (1994)) and the specific NGF receptor TrkA (Barbacid, J. Neurobiol. 25: 1386-1403 (1994)). Immunoprecipitation and polyacrylamide gel electrphoresis of cross linked receptors allowed identification of both receptors, as shown in FIG. 7A. […] At concentrations of 200 μM, neither R11(l) nor R11(m) were able to inhibit greater than 50% of the observed ^125 I-labelling.
The ability of the peptides derived from the 68-58/108-110 region of NGF to antagonize NGF interaction with the p75 and TrkA receptors was determined The peptides tested were bicyclic (BC) 68-58/108-110, cyclic (C) 68-58/108-110, and linear (L) 68-58/108-110, each of which are illustrated in FIGS. 2 and 5D
Receptor cross-linking studies were performed on PC12 rat pheochromocytoma cells (ATCC CRL 1721; Greene et al., Proc. Natl. Acad. Sci. USA 73: 2424-2432 (1976)) which were maintained in RPMI1640 (Gibco) supplemented with 10% fetal calf serum (Gibco). […]

T1 sequence (P01139 122-239): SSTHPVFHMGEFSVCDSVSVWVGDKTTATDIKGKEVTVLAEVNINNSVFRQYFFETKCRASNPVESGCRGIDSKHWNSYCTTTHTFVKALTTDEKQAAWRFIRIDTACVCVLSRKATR

In the case of “NH2 -Cys-Gly-Ser-Glu-Val-Pro-Asn-Ser-Ala-Arg-Cys-Cys-Val-Cys-OH (H-CGSEVPNSARCCVC-OH; disulfide 1-14, 11-12) [R11, bicyclic peptide of NGF residues 68-58/108-110, two disulfide bonds]”, the “Covalent attachment of 125I-NGF to receptor (TrkA)” value is reported as “effectively prevented the covalent attachment”.
